Data reported in patent publication US20020183249A1, “Method of identifying inhibitors of CDC25” (priority 1999, published 2002).
Read-outs that look alike come from different tables or passages of the source. Non-standard residues stand in square brackets, D forms with d. Residues, ends and D or L forms follow the SMILES beside them. *: point of attachment. Phe(4-CH2SO3H) = N[C@@H](Cc1ccc(CS(=O)(=O)O)cc1)C(=O)O; Bta = N[C@@H](Cc1csc2ccccc12)C(=O)O; Aad = N[C@@H](CCCC(=O)O)C(=O)O; X1 = CCOc1ccc2ccccc2c1C(=O)*; X2 = COc1ccc2ccccc2c1C(=O)*; αMeP = C[C@@]1(C(=O)O)CCCN1; Nle = CCCC[C@H](N)C(=O)O; Nva = CCC[C@H](N)C(=O)O; NHtBu = CC(C)(C)N*; OtBu = CC(C)(C)O*

Legend:
Cdc25A (human) = test: cell-based or functional assay
Cdc25A = biological target: T1, Cdc25A (Homo sapiens, UniProt P30304); test: Inhibition of Cdc25A enzymatic activity (IC50); assay type: biochemical
T1 sequence (P30304 1-524): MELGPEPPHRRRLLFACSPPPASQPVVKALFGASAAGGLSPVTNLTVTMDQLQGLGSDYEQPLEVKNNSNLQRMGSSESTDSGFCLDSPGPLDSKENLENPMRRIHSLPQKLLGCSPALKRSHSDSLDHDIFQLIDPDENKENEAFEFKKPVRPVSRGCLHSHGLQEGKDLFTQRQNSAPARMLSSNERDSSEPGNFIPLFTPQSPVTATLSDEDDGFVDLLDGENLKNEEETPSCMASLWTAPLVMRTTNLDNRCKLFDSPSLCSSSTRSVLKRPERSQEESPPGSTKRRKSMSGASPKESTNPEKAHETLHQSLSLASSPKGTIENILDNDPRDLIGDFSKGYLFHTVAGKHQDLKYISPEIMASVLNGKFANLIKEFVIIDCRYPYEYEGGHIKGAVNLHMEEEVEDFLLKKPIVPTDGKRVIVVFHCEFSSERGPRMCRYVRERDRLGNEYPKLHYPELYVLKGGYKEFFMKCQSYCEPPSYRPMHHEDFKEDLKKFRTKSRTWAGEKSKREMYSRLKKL
Description: A compound which is identified by one of the foregoing methods as a potential inhibitor of Cdc25 can then be obtained, for example, by synthesis or from a compound library, and assessed for the ability to inhibit Cdc25 in vitro. Such an in vitro assay can be performed as is known in the art, for example, by contacting Cdc25 in solution with the test compound in the presence of a substrate for Cdc25. The rate of substrate transformation can be determined in the presence of the test compound and compared with the rate in the absence of the test compound. Suitable assays for Cdc25 biological activity are described in U.S. Pat. Nos. 5,861,249; 5,695,950; 5,443,962; and 5,294,538, the teachings of each of which are hereby incorporated by reference herein in their entirety.

IC50 (Cdc25A (human)) | Molecule | IC50 (Cdc25A) | other results
5000 nM | 2-CH3O-1-naphthyl-CO-Smp-Glu-Glu-Bta-Aad-NHtBu (peptide) | – | –
1100 nM | 2-EtO-naphthyl-1-CO-Smp-Glu(tBu)-Pro-Bta-Aad-NHtBu (peptide) | – | –
2200 nM | 2-EtO-naphthyl-1-CO-Smp-Glu-Pro-Bta-Aad-NHtBu (peptide) | – | increase in potency compared to cdc1671 (Cdc25A (human)): 2 fold
2500 nM | 2-EtO-naphthyl-1-CO-Smp-Nle-Pro-Bta-Aad-NHtBu (peptide) | – | –
1500 nM | 2-EtO-naphthyl-1-CO-Smp-Nva-MePro-Bta-Aad-NHtBu (peptide) | – | –
– | COc1ccc2ccccc2c1C(=O)N[C@@H](Cc1ccc(CS(=O)(=O)O)cc1)C(=O)N[C@@H](CCC(=O)O)C(=O)N[C@@H](CCC(=O)O)C(=O)N[C@@H](Cc1csc2ccccc12)C(=O)N[C@@H](CCCC(=O)O)C(=O)NC(C)(C)C [cdc1671, 2-CH3O-1-naphthyl-CO—Smp—Glu—Glu—Bta—Aad—NHtBu] (X2-[Phe(4-CH2SO3H)]EE[Bta][Aad]-NHtBu) | – | IC50 (Cdc25A; inhibits Cdc25A, read-out: IC50): 5000 nM
– | CCOc1ccc2ccccc2c1C(=O)N[C@@H](Cc1ccc(CS(=O)(=O)O)cc1)C(=O)N[C@@H](CCC(=O)OC(C)(C)C)C(=O)N1CCC[C@H]1C(=O)N[C@@H](Cc1csc2ccccc12)C(=O)N[C@@H](CCCC(=O)O)C(=O)NC(C)(C)C [cdc1719] (X1-[Phe(4-CH2SO3H)]E(OtBu)P[Bta][Aad]-NHtBu) | 1100 nM | –
– | CCCC[C@H](NC(=O)[C@H](Cc1ccc(CS(=O)(=O)O)cc1)NC(=O)c1c(OCC)ccc2ccccc12)C(=O)N1CCC[C@H]1C(=O)N[C@@H](Cc1csc2ccccc12)C(=O)N[C@@H](CCCC(=O)O)C(=O)NC(C)(C)C [cdc1748] (X1-[Phe(4-CH2SO3H)][Nle]P[Bta][Aad]-NHtBu) | 2500 nM | –
– | CCC[C@H](NC(=O)[C@H](Cc1ccc(CS(=O)(=O)O)cc1)NC(=O)c1c(OCC)ccc2ccccc12)C(=O)N1CCC[C@@]1(C)C(=O)N[C@@H](Cc1csc2ccccc12)C(=O)N[C@@H](CCCC(=O)O)C(=O)NC(C)(C)C [cdc1749] (X1-[Phe(4-CH2SO3H)][Nva][αMeP][Bta][Aad]-NHtBu) | 1500 nM | –
– | CCOc1ccc2ccccc2c1C(=O)N[C@@H](Cc1ccc(CS(=O)(=O)O)cc1)C(=O)N[C@@H](CCC(=O)O)C(=O)N1CCC[C@H]1C(=O)N[C@@H](Cc1csc2ccccc12)C(=O)N[C@@H](CCCC(=O)O)C(=O)NC(C)(C)C [cdc1763] (X1-[Phe(4-CH2SO3H)]EP[Bta][Aad]-NHtBu) | 2200 nM | increase in potency compared to cdc1671 (Cdc25A; Cdc25A IC50 relative to cdc1671): two-fold
